Measured values reported in the nanobody polyreactivity screen of Harvey et al. (2022).

Assay: yeast display, Sf9 membrane polyspecificity reagent, FACS + sequencing; frameworks hold sequencing errors
In short: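 Nanobodies came from a synthetic yeast display library in Saccharomyces cerevisiae BJ5465, induced with galactose for 36–48 hours and stained for 1 hour at 4 °C with 10% biotinylated, detergent-solubilized Sf9 membrane reagent. Cells were enriched on streptavidin microbeads and then FACS-sorted, with low and high (top ~1%) gates set on anti-HA fluorescence for expression and streptavidin fluorescence for reagent binding. Each polyreactivity label reflects the gate a clone came from. Genes were amplified by colony PCR, sequenced by MiSeq 2 × 250 and filtered by CDR length.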
With “QVQLVESGGGLVQAGGSLRLSCAASGFIFRYYAMGWYRQAPGKERELVADISWSGGSTHYADSVKGRFTISRDNAKNTVYLQMNSQKPEDTAVYYCAADPTLYSSWSTYYRSNYWGQGTQVTVSS” the “polyreactivity (PSR sort gate)” value was “high polyreactivity”.
For “QVQLVESGGGLVQAGGSLRLSCAASGFIFRYYAMGWYRQAPGKERELVATISSGGGTHYADSVKGRFTISRDNAKNTVYLQMNSLKPEDTAVYYCNARGYRRLRTRVDYWGQGTQVTVSS”, the “polyreactivity (PSR sort gate)” value was “high polyreactivity”.
For “QVQLVESGGGLVQAGGSLRLSCAASGFIFRYYTMGWYRQAPGKERELVAAISSGTSTHYADSVKGRYTISRNNAKNTVNLQMNSLKPEDTAVYYCAADLPYWYNRKPIFPYYYWGQGTQVTVSS”, the “polyreactivity (PSR sort gate)” value was “high polyreactivity”.
With “QVQLVESGGGLVQAGGSLRLSCAASGFIFSFNAMGWYRQAPGKERELVAAISRRGGRTYYADSVKGRFTISRDNAKNTVYLQMNSLKPEDTAVYYCAAQGRDSTPHGYWGQGTQVTVSS” the “polyreactivity (PSR sort gate)” value was “high polyreactivity”.
With “QVQLVESGGGLVQAGGSLRLSCAASGFIFSHYAMGWYRQAPGKERELVAAISRNGGSTYYADSVKGRFTISRDNAKNTVYLQMNSLKPEDTAVYYCAVDVSEWYHYDLYYWYYYWGQGTQVTVSS” the “polyreactivity (PSR sort gate)” value was “high polyreactivity”.
For “QVQLVESGGGLVQAGGSLRLSCAASGFIFSKNAMGWYRQAPGKERELVARITRRVGSTYYADSVKGRFTISRDNAKITVYLQMNSLKPEDTAVYYWAAVVHIQRSTRDYWGQGTQVTVSS”, the “polyreactivity (PSR sort gate)” value was “high polyreactivity”.
With “QVQLVESGGGLVQAGGSLRLSCAASGFIFSKYAMGWYRQAPGKERELVAAITFSGGSTYYADSVKGRFTISRDNAKNTVYLQMNSLKPEDTAVYYCNAEGSYPDVSPVLGYDYWGQGTQVTVSS” the “polyreactivity (PSR sort gate)” value was “low polyreactivity”.
In the case of “QVQLVESGGGLVQAGGSLRLSCAASGFIFSKYAMGWYRQAPGKERELVAAITSGGSTYYADSVKGRFTISRDNAKNTVYLQMNSLKPEDTAVYYCAADSYVPNLNYDYWGQGTQVNVSS”, the “polyreactivity (PSR sort gate)” value is reported as “low polyreactivity”.
In the case of “QVQLVESGGGLVQAGGSLRLSCAASGFIFSKYAMGWYRQAPGKERELVASISTSGGSTYYADSVKGRFTISRDNAKNTVYLQMNSLKPEDTAVYYCAVASRSHGYKRAYYYWGQGTQVTVSS”, the “polyreactivity (PSR sort gate)” value is reported as “high polyreactivity”.
For “QVQLVESGGGLVQAGGSLRLSCAASGFIFSLYAMGWYRQAPGKERELVAAISKRGGSTNYADSVKGRFTISRDNAKNTVYLQMNSLKPEDTAVYYCAKARPGFLYDHWGQGTQVTVSS”, the “polyreactivity (PSR sort gate)” value was “high polyreactivity”.
With “QVQLVESGGGLVQAGGSLRLSCAASGFIFSLYAMGWYRQAPGKERELVGAITRSGGSTYYADSVKGRFTISRDNAKNTVYLQMNSLKAEDTAVYYCAVSACYHYNYWGQGTQVTVSS” the “polyreactivity (PSR sort gate)” value was “high polyreactivity”.
In the case of “QVQLVESGGGLVQAGGSLRLSCAASGFIFSNAMGWYRQAPGKERELVAAISRSGGSTYYADSVKGRFTISRDNAKNTVYLQMNSLKPEDTAVYYCGARSYPRSPVRYDYWGQGTQVTVSS”, the “polyreactivity (PSR sort gate)” value is reported as “high polyreactivity”.
With “QVQLVESGGGLVQAGGSLRLSCAASGFIFSNNAMGWYRQAPGKERELVAVINGGGSTYYADSVKGRFTISRDNAKNTVYLQMNSLKPEDTAFYYCARKSWPKERRVDPGYDYWGQGTQVTVSS” the “polyreactivity (PSR sort gate)” value was “low polyreactivity”.
For “QVQLVESGGGLVQAGGSLRLSCAASGFIFSPYDMGWYRQAPGKERELVAAISWRTGSTYYADSVKGRFTISRDNAKNTVYLQMNSLKPEDTAVYYCAARFIWSSYGRYDYWGQGTQVTVSS”, the “polyreactivity (PSR sort gate)” value was “high polyreactivity”.
In the case of “QVQLVESGGGLVQAGGSLRLSCAASGFIFSQYTMGWYRQAPGKERELVAAISFSDSSTFYADSVKGRFTISRDNAKNTVYLQMNSLKPEDTAVYYCAAEWGYRQRYFYATGGYWGQGTQVTVSS”, the “polyreactivity (PSR sort gate)” value is reported as “low polyreactivity”.
With “QVQLVESGGGLVQAGGSLRLSCAASGFIFSRNAMGWYRQAPGKERELVARISRSGGRTYYADSVKGRFTISRDNAKNTVYLLMNSLKPEDTAVYYCATDHVRQSPYDYWGQGTQVTVSS” the “polyreactivity (PSR sort gate)” value was “high polyreactivity”.
With “QVQLVESGGGLVQAGGSLRLSCAASGFIFSRYAMGWYRQAPGKEREFVAANSWSGGRTYYADSVKGRFTISRDNAKNTVYLQMNSLKPEDTAVYFCAARGYYPARHGTGGYWGQGTQVTVSS” the “polyreactivity (PSR sort gate)” value was “high polyreactivity”.
With “QVQLVESGGGLVQAGGSLRLSCAASGFIFSRYGMGWYRQAPGKERELVAAISRSGGSTYYADSVKGRFTISRDNAKNTVYLQMNSLKPEDTAVYYCATAYSWRNADWFAYSYDYWGQGTQVTVSS” the “polyreactivity (PSR sort gate)” value was “low polyreactivity”.
For “QVQLVESGGGLVQAGGSLRLSCAASGFIFSRYVMGWYRQAPGKERELVAAISRGGSTYYADSVKGRFTISRDNAKNTVYLQMNSLKPEDTAVYYCAVRSTRFLIYYPPYDYWGQGTQVTVSS”, the “polyreactivity (PSR sort gate)” value was “high polyreactivity”.
With “QVQLVESGGGLVQAGGSLRLSCAASGFIFSSNAMGGYRQAPGTERELVATIDRDGGITYADSVKGRFTISRDNAKTTVYIQMNSLKPEDTEVYYCAADPSSYGRFTYDYWGQGTQVTVSS” the “polyreactivity (PSR sort gate)” value was “low polyreactivity”.
With “QVQLVESGGGLVQAGGSLRLSCAASGFIFSSYAKGWYRQAPGKERELVAVITRSGRRTYYADSVKGRFTISRDNAKNTFYLQMNSLKPEDTAVYYCNATLPNEVAPNDYWGQGTQVTVSS” the “polyreactivity (PSR sort gate)” value was “high polyreactivity”.
In the case of “QVQLVESGGGLVQAGGSLRLSCAASGFIFSSYAKGWYRQAPGKETELVAAITSGGSTNYADSVKGRFTISRDNAKNTVYLQMNSLYPEDTAVYYCATVPGGSWFFHWWSTGGDDEYWGQGTQVTVSS”, the “polyreactivity (PSR sort gate)” value is reported as “low polyreactivity”.
For “QVQLVESGGGLVQAGGSLRLSCAASGFIFSSYAMGWYRQAPGKERELVAAISRSGGRTNYADSVKGRFTISRDNAKNTVYLQMNSLKPDDTAVYYCNARGRGKYPPYGYDYWGQGTQVTVSS”, the “polyreactivity (PSR sort gate)” value was “high polyreactivity”.
For “QVQLVESGGGLVQAGGSLRLSCAASGFIFSSYAMGWYRQAPGKERELVAAITSGGSTNYADSVKGRFTISRDNAKNTVYLQMNSLKPEDTAVYYCATVPGRSWFFHWWSTGGDDEYWGQGTQVTVSS”, the “polyreactivity (PSR sort gate)” value was “low polyreactivity”.
For “QVQLVESGGGLVQAGGSLRLSCAASGFIFSTNAMGWYRQAPGKERELVAAISRRGGNTYYADSVKGRFTISRDNAKNTVYLQMNSLKPEDTAVDYCNAVFRSGGLDYWGQGTQVTVSS”, the “polyreactivity (PSR sort gate)” value was “high polyreactivity”.
In the case of “QVQLVESGGGLVQAGGSLRLSCAASGFIFSTNAMGWYRQAPGKERELVAAISRRGGNTYYADSVKGRFTISRDNAKNTVYLQMNSLKPEDTAVYYCNAVFRSGGLDYWGQGTQVTVSS”, the “polyreactivity (PSR sort gate)” value is reported as “high polyreactivity”.
With “QVQLVESGGGLVQAGGSLRLSCAASGFIFSTYVMGWYRQAPGKERELVAAISASGGRTYYADSVKGRFTISRDTAKNTVYLQMNSLKPEDTAVFYCAAEITDTYRWALNYWGQGTQVTVSS” the “polyreactivity (PSR sort gate)” value was “high polyreactivity”.
For “QVQLVESGGGLVQAGGSLRLSCAASGFIFSWNAMGWYRQAPGKERELVAAITNRGGSTYYADSVKGRFTISRDNAKNTVYLQMNSLKPEDTAVYYCAKRSSRWGRTPYDYWGQGTQVTVSS”, the “polyreactivity (PSR sort gate)” value was “high polyreactivity”.
With “QVQLVESGGGLVQAGGSLRLSCAASGFIFSYLYAMGWYRQAPGKERELVAAITYNGGSTYYADSVKGRFTISRDIAKNTVYLQMNSLKPEDTAVYYCAARKRYRANSYWEMAYWGQGTQVTVSS” the “polyreactivity (PSR sort gate)” value was “high polyreactivity”.
In the case of “QVQLVESGGGLVQAGGSLRLSCAASGFIFSYNAMGWYRQAPGKERELVAAISSRGGSTYYADSVKGRFTISRDNAKNTVYLQTKSLKPEDTAVYYCAVASRRVYTAPYDYWGQGTQVTVSS”, the “polyreactivity (PSR sort gate)” value is reported as “high polyreactivity”.
For “QVQLVESGGGLVQAGGSLRLSCAASGFIFSYNAMGWYRQAPGKERELVAAISSRGGSTYYADSVMGRFTISRDNAKNTVYLQMNSLKPEDTAVSYCAVASRRVYTAPSDYWGQGTQVTVSS”, the “polyreactivity (PSR sort gate)” value was “high polyreactivity”.
With “QVQLVESGGGLVQAGGSLRLSCAASGFIFSYYAMGWYIQEPGKERELVAAITVTGGNTYYADSVKGRFTISRDNAKNTVYLQMNSLIPEDTAVYYCAAVVRGPGVSVYYWGLGTQVTVSS” the “polyreactivity (PSR sort gate)” value was “low polyreactivity”.
For “QVQLVESGGGLVQAGGSLRLSCAASGFIFSYYAMGWYRQAPGKERELVAAISGRGGSTYYADSVKGRFTISRDNEKNTVYLQMNSLKPEDTAVYYCAATTLRFYRHGDYWGQGTQVTVSS”, the “polyreactivity (PSR sort gate)” value was “low polyreactivity”.
For “QVQLVESGGGLVQAGGSLRLSCAASGFIFSYYAMGWYRQAPGKERELVAAITSNGGSTYYADSVKGRFTISRDNAKNTVYLQMNSLKPEDTAVYYCNVKYRYWNQGYGSWGQGTQVTVSS”, the “polyreactivity (PSR sort gate)” value was “high polyreactivity”.
For “QVQLVESGGGLVQAGGSLRLSCAASGFIFSYYTMGWYRQAPGKERELVAAITSGGSTNYADSVKGRFTISRDNAKNTVYLQMNSLKPEDTAVYYCNALLWAWTLWGSGYDYWGQGTQVTVSS”, the “polyreactivity (PSR sort gate)” value was “low polyreactivity”.
With “QVQLVESGGGLVQAGGSLRLSCAASGFIFTANAMGWYRQAPGKESELVANINRSGDSTYYADSVKGRFTISRDNAKNTVYLQMNSLKPEDTAVYYCNKDWHSQVFSAYNSYDYWGQGTQVTVSS” the “polyreactivity (PSR sort gate)” value was “low polyreactivity”.
For “QVQLVESGGGLVQAGGSLRLSCAASGFIFTDNVMGWYRQAPGKERELVAAISRRGGSTYYADSVKGRFTISRDNAKNTVYLQMNSLKPEDTAVYYCNVARQSYLLDYWGQGTQVTVSS”, the “polyreactivity (PSR sort gate)” value was “high polyreactivity”.
With “QVQLVESGGGLVQAGGSLRLSCAASGFIFTDYAMGWYRQAPGKERELVATISWSGSSTYYADSVKGRFTISRDNEKNTVYLQMNILKPEDTGVYYCAAEFWYTYPYLVDYWRQGTQVTVSS” the “polyreactivity (PSR sort gate)” value was “low polyreactivity”.
In the case of “QVQLVESGGGLVQAGGSLRLSCAASGFIFTFYAMGWYRQEPGKEREFVASIDWGDGSTYYADSVKGRFTISRDNAKNTVYLQMNSLKPEDTAVYYCAHDYDGYVWDTEYDYWGQGTQVTVSS”, the “polyreactivity (PSR sort gate)” value is reported as “low polyreactivity”.
With “QVQLVESGGGLVQAGGSLRLSCAASGFIFTGNAMGWYRQAPGKERELVAAITGRGSTYYADSVKGRFTISRDNAKNTVYLQMNSLKPEDTAVYYCAAKRWWQYYWGQGTQVTVSS” the “polyreactivity (PSR sort gate)” value was “high polyreactivity”.
With “QVQLVESGGGLVQAGGSLRLSCAASGFIFTGNVMGWYRQAPGKERELVAAIRWSGGRTYYADSVKGRFTISRDNAKNTVYLQMNSLKPEDTAVYYCNALGRVQGYKPGGLDYWGQGTQVTVSS” the “polyreactivity (PSR sort gate)” value was “high polyreactivity”.
In the case of “QVQLVESGGGLVQAGGSLRLSCAASGFIFTGYTMGWYRQAPGKERELVARISSGDSTKYADSVKGRFTISRDNAKNTVYLQMNSLKPEDTAVYYCAATTGYTARWRNRYIYYYWGQGTQVTVSS”, the “polyreactivity (PSR sort gate)” value is reported as “high polyreactivity”.
For “QVQLVESGGGLVQAGGSLRLSCAASGFIFTKYTMGWYRQAPGKERELVADITGRGTSTYADSVKGRFTISRDNAKNTVYLQMNSLKPEDTAVYYCAAVGWFADFLFSDINGYYWGQGTQVTVSS”, the “polyreactivity (PSR sort gate)” value was “low polyreactivity”.
